The RNAGym collection of RNA variant scans (doi:10.7554/elife.80360)

B1: CPEB3 Ribozyme (parent)
chain: GGGGGCCACAGCAGAAGCGUUCACGUCGCGGCCCCUGUCAGAUUCUGGUGAAUCUGCGAAUUCUGCUGU

Variants of: B1
Assay: self-cleavage, relative activity (ratio to wild type); higher = more cleavage; co-transcriptional
A13U U64C gave a self-cleavage of 0.853.
In the case of A13U U64G, the self-cleavage is reported as 0.969.
In the case of A13G U62C, the self-cleavage is reported as 0.449.
Variant A13G U62A has a self-cleavage of 0.622.
A13G U62G showed a self-cleavage of 0.445.
For A13U C39A, the self-cleavage was 0.394.
Variant A13U C39G has a self-cleavage of 0.508.
G14A G48C gave a self-cleavage of 0.836.
Variant G14A G48U has a self-cleavage of 0.943.
Variant G14A G48A has a self-cleavage of 0.868.
Variant A13U U62A has a self-cleavage of 0.438.
With A13U G47U the self-cleavage was 0.881.
In the case of A13U G47A, the self-cleavage is reported as 0.893.
For A13G U64A, the self-cleavage was 0.843.
With A13G U64G the self-cleavage was 0.745.
Variant A13G U64C has a self-cleavage of 1.
In the case of A13C U46C, the self-cleavage is reported as 0.761.
Work on A13C U21A yielded a self-cleavage of 0.772.
With A13C U21C the self-cleavage was 0.496.
For A13C U21G, the self-cleavage was 0.135.
Work on A13C U49A yielded a self-cleavage of 0.922.
With A13C U49C the self-cleavage was 0.842.
Variant A13C U49G has a self-cleavage of 0.933.
Work on A13U C18U yielded a self-cleavage of 0.19.
A13U C18G gave a self-cleavage of 0.119.
With A13G G41A the self-cleavage was 0.448.
Variant A13U U69A has a self-cleavage of 0.89.
A13U U69C showed a self-cleavage of 1.
Work on A13U U69G yielded a self-cleavage of 0.961.
Variant A13U G37C has a self-cleavage of 0.186.
Work on A13U G37U yielded a self-cleavage of 0.196.
For A13C U36C, the self-cleavage was 0.62.
Work on A13U C32G yielded a self-cleavage of 0.229.
For A13U C32A, the self-cleavage was 0.542.
A13G A51C showed a self-cleavage of 0.874.
G14A C57A gave a self-cleavage of 0.264.
In the case of G14A C57G, the self-cleavage is reported as 0.258.
For A13C U26C, the self-cleavage was 0.692.
A13C U26G gave a self-cleavage of 0.113.
Variant A13C U26A has a self-cleavage of 0.615.
Work on G14A C18A yielded a self-cleavage of 0.163.
With G14A C18G the self-cleavage was 0.208.
Work on G14A C18U yielded a self-cleavage of 0.179.
In the case of A13U U67C, the self-cleavage is reported as 0.66.
A13U U67A showed a self-cleavage of 0.629.
Work on G14A A42C yielded a self-cleavage of 0.343.
For G14A G17U, the self-cleavage was 0.111.
A13U A51C gave a self-cleavage of 0.828.
A13U A51G showed a self-cleavage of 0.837.
With A13U A51U the self-cleavage was 0.858.
For G14A A16G, the self-cleavage was 0.463.
G14A A16U gave a self-cleavage of 0.353.
For G14A A16C, the self-cleavage was 0.136.
For A13G U53A, the self-cleavage was 0.87.
Work on A13G U53G yielded a self-cleavage of 0.737.
For A13G U53C, the self-cleavage was 0.628.
In the case of G14A G31C, the self-cleavage is reported as 0.183.
For G14A G31A, the self-cleavage was 0.249.
With A13G U20G the self-cleavage was 0.0546.
Variant A13U G48C has a self-cleavage of 0.872.
Variant A13U G48U has a self-cleavage of 0.916.
In the case of G14A C22G, the self-cleavage is reported as 0.166.
Work on A13C U62G yielded a self-cleavage of 0.355.
Work on A13U A59G yielded a self-cleavage of 0.784.
Variant A13U A59C has a self-cleavage of 0.33.
With A13U C24A the self-cleavage was 0.301.
A13U C24U showed a self-cleavage of 0.364.
Work on A13G C29G yielded a self-cleavage of 0.126.
Variant A13G C29A has a self-cleavage of 0.42.
Variant A13U G14U has a self-cleavage of 0.437.
A13U G14A gave a self-cleavage of 0.328.
With A13U U53A the self-cleavage was 0.514.
For A13U U53G, the self-cleavage was 0.398.
A13U C45A gave a self-cleavage of 0.764.
Work on A13U C45G yielded a self-cleavage of 0.814.
A13U A60U showed a self-cleavage of 0.356.
With A13U A60G the self-cleavage was 0.398.
In the case of A13U C57U, the self-cleavage is reported as 0.308.
Variant A13U C57G has a self-cleavage of 0.226.
For A13G G48U, the self-cleavage was 0.914.
With A13G G48A the self-cleavage was 0.968.
Variant A13U G28A has a self-cleavage of 0.134.
A13U G28C gave a self-cleavage of 0.125.
In the case of A13G A40G, the self-cleavage is reported as 0.831.
A13G A40U gave a self-cleavage of 0.455.
In the case of A13G C33G, the self-cleavage is reported as 0.638.
A13G G37C gave a self-cleavage of 0.109.
A13G G37A gave a self-cleavage of 0.172.
Variant A13G G37U has a self-cleavage of 0.184.
A13G A59C showed a self-cleavage of 0.522.
A13G A59G gave a self-cleavage of 0.946.
For A13G A59U, the self-cleavage was 0.57.
With A13G U38G the self-cleavage was 0.149.
Work on A13G U38A yielded a self-cleavage of 0.898.
In the case of A13G U38C, the self-cleavage is reported as 0.938.
A13G G56U gave a self-cleavage of 0.742.
With A13G G56C the self-cleavage was 0.421.
Variant A13G G56A has a self-cleavage of 0.934.
A13G G28U showed a self-cleavage of 0.15.
A13G G28C gave a self-cleavage of 0.18.
Variant A13U U36G has a self-cleavage of 0.136.
Variant A13U U36A has a self-cleavage of 0.121.
G14A C33A gave a self-cleavage of 0.519.
In the case of G14A A23G, the self-cleavage is reported as 0.444.
G14A A23C showed a self-cleavage of 0.582.
Variant G14A G37A has a self-cleavage of 0.191.
With A13U U49C the self-cleavage was 0.78.
With A13G G50A the self-cleavage was 0.896.
For A13G G50C, the self-cleavage was 0.881.
With A13G G50U the self-cleavage was 0.973.
In the case of G14A G58A, the self-cleavage is reported as 0.703.
In the case of G14A G58U, the self-cleavage is reported as 0.895.
For G14A G58C, the self-cleavage was 0.674.
Variant G14A C29U has a self-cleavage of 0.113.
A13U A16C showed a self-cleavage of 0.14.
A13U A16G showed a self-cleavage of 0.589.
A13U A16U gave a self-cleavage of 0.34.
A13G U55C gave a self-cleavage of 0.621.
A13G U55G gave a self-cleavage of 0.51.
Work on A13C U69G yielded a self-cleavage of 0.96.
For A13U C54A, the self-cleavage was 0.29.
A13U C54U gave a self-cleavage of 0.729.
A13U G31C showed a self-cleavage of 0.217.
Work on A13U G31U yielded a self-cleavage of 0.402.
Variant G14A C27U has a self-cleavage of 0.134.
With G14A C27A the self-cleavage was 0.14.
Variant A13G G19A has a self-cleavage of 0.155.
In the case of A13G G19U, the self-cleavage is reported as 0.0922.
G14A U26A showed a self-cleavage of 0.346.
With A13G C54G the self-cleavage was 0.772.
A13G C54A showed a self-cleavage of 0.642.
Variant A13G A15C has a self-cleavage of 0.196.
In the case of A13G A15G, the self-cleavage is reported as 0.82.
Variant A13G C34G has a self-cleavage of 0.293.
A13G C34U gave a self-cleavage of 1.02.
For A13G C34A, the self-cleavage was 0.797.
In the case of A13C U44C, the self-cleavage is reported as 0.51.
In the case of A13C U44G, the self-cleavage is reported as 0.802.
A13C U44A gave a self-cleavage of 0.7.
In the case of A13U U20C, the self-cleavage is reported as 0.145.
Variant A13U U20G has a self-cleavage of 0.185.
Variant A13U U55G has a self-cleavage of 0.234.
Variant A13U U55A has a self-cleavage of 0.246.
In the case of G14A C66G, the self-cleavage is reported as 0.287.
In the case of G14A C66A, the self-cleavage is reported as 0.262.
Work on G14A C66U yielded a self-cleavage of 0.375.
For G14A C34A, the self-cleavage was 0.419.
For G14A C34G, the self-cleavage was 0.23.
With A13C U43A the self-cleavage was 0.514.
Work on A13C U43G yielded a self-cleavage of 0.32.
For G14A G19A, the self-cleavage was 0.16.
In the case of G14A G19C, the self-cleavage is reported as 0.106.
In the case of A13G A60U, the self-cleavage is reported as 0.282.
In the case of A13G A60G, the self-cleavage is reported as 0.66.
With A13G A60C the self-cleavage was 0.268.
A13U A23U gave a self-cleavage of 0.963.
Variant A13U A23G has a self-cleavage of 0.618.
For G14A G56C, the self-cleavage was 0.261.
For G14A G56A, the self-cleavage was 0.466.
For G14A G56U, the self-cleavage was 0.321.
With A13G U44G the self-cleavage was 0.826.
G14A G25U showed a self-cleavage of 0.0915.
Variant G14A G25A has a self-cleavage of 0.156.
For G14A G25C, the self-cleavage was 0.105.
A13U G19U gave a self-cleavage of 0.15.
With A13U G19C the self-cleavage was 0.133.
In the case of A13U G19A, the self-cleavage is reported as 0.145.
